Laboratory results published in paper PMC12775124, “CUL4A-DDB1-DCAF10 is an N-recognin for N-terminally acetylated Src kinases” (Nature Communications, 2026).

T1: GST-DCAF10 (UniProt Q5QP82 1-559)
T1 construct: DCAF10, full length; the UniProt entry is printed for the AlphaFold 3 model of the same protein; cloning and purification are in the Supplementary Methods; also called purified full-length GST-DCAF10; source: purified
T1 sequence (looked up): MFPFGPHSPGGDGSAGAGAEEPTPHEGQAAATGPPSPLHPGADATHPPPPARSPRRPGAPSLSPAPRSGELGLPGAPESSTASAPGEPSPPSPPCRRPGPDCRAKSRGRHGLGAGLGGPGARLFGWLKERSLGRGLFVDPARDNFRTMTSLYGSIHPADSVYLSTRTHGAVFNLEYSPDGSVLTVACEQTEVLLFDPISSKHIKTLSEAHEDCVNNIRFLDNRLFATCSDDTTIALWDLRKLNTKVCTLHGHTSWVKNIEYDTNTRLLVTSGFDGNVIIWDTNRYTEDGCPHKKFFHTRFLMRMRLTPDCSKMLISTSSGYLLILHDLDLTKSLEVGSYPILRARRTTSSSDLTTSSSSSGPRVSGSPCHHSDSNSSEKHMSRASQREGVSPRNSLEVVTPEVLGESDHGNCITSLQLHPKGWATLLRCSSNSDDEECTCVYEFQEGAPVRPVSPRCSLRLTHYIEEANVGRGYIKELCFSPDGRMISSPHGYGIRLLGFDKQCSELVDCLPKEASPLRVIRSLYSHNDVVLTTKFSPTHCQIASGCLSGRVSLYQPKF

T2: Ac-Lyn^G2A peptide (human, UniProt P07948 2-11, G2A)
T2 construct: Lyn, N-terminal 10-mer without the initiator Met, G2A; Lys3 spacer that carries the C-terminal biotin; also called Ac-Ala peptide; source: synthetic peptide
T2 peptide: Ac-ACIKSKGKDSKKK-biotin

B1: Nt-acetylated Lyn peptide (peptide)
peptide: Ac-GCIKSKGKDSKKK-biotin
notes: Lyn, N-terminal 10-mer without the initiator Met; Lys3 spacer that carries the C-terminal biotin; also called Nt-Ac Lyn; Ac-Lyn; source: synthetic peptide
B2: Nt-acetylated Src peptide (peptide)
peptide: Ac-GSNKSKPKDAKKK-biotin
notes: Src, N-terminal 10-mer without the initiator Met; Lys3 spacer that carries the C-terminal biotin; also called Nt-Ac Src; Ac-Src; source: synthetic peptide
B3: Nt-acetylated Fyn peptide (peptide)
peptide: Ac-GCVQCKDKEAKKK-biotin
modifications: cysteine pairing not given here
notes: Fyn, N-terminal 10-mer without the initiator Met; Lys3 spacer that carries the C-terminal biotin; also called Nt-Ac Fyn; Ac-Fyn; source: synthetic peptide
B4: DDB1- and CUL4A-associated factor 10 (natural protein, human (endogenous in HeLa and DLD-1), UniProt Q5QP82 1-559, looked up)
chain: T1 sequence (looked up)
notes: DCAF10, endogenous protein of human cell lysates; also called DCAF10; WDR32; source: endogenous, HeLa lysate; endogenous, DLD-1 Lyn KO Flp-In T-REx cell lysate

Legend:
GST-DCAF10 = biological target: T1, GST-DCAF10; assay: pull-down; Nt-peptides bound to streptavidin beads incubated with purified GST-DCAF10 or GST alone; Western blots against GST, DCAF10 and streptavidin; n = 3; settings: both partners purified
Ac-Lyn^G2A peptide = biological target: T2, Ac-Lyn^G2A peptide; assay: affinity purification with mass spectrometry; biotinylated 10-mer Nt-peptides on magnetic streptavidin beads incubated with HeLa lysate; retained proteins digested on bead and quantified label-free by LC-MS (DIA); pairwise comparison of two peptides; n = 3; settings: one partner purified
[1] = biological target: B1; assay: as above; settings: one partner purified
[2] = biological target: B2; assay: as above; settings: one partner purified

## B1
GST-DCAF10
  binding result: binds

## B2
GST-DCAF10
  binding result: binds

## B3
GST-DCAF10
  binding result: binds

## B4
Ac-Lyn^G2A peptide
  fold lower than the Ac-Gly peptide (Ac-Lyn^WT): 15 fold
[1]
  fold stronger than Ac-THOC7: ~57 fold
[2]
  log2 fold change (Nt-Ac against Nt-free Src peptide, Fig. 1c): ~5 log2
